# Square brackets hold non-standard residues; d marks the D form. Ends that are not written are not given here. pY = N[C@@H](Cc1ccc(OP(=O)(O)O)cc1)C(=O)O
# Key:
# Settings in all cases: both partners purified
# Full-length Hsp90β [1] = target: T1, Full-length Hsp90β (UniProt P08238 1-724); assay: ITC; cochaperone Cdc37 (~300-400 μM, syringe) titrated into Hsp90β variants (~20-30 μM, cell); 25 °C; 20 mM Tris, 100 mM NaCl, 0.5 mM EDTA, 1 mM TCEP; single binding site model
# T1 construct: Hsp90β (printed as full-length Hsp90αβ1), in pET28; also called Hsp90αβ1
# T1 sequence (P08238 whole entry): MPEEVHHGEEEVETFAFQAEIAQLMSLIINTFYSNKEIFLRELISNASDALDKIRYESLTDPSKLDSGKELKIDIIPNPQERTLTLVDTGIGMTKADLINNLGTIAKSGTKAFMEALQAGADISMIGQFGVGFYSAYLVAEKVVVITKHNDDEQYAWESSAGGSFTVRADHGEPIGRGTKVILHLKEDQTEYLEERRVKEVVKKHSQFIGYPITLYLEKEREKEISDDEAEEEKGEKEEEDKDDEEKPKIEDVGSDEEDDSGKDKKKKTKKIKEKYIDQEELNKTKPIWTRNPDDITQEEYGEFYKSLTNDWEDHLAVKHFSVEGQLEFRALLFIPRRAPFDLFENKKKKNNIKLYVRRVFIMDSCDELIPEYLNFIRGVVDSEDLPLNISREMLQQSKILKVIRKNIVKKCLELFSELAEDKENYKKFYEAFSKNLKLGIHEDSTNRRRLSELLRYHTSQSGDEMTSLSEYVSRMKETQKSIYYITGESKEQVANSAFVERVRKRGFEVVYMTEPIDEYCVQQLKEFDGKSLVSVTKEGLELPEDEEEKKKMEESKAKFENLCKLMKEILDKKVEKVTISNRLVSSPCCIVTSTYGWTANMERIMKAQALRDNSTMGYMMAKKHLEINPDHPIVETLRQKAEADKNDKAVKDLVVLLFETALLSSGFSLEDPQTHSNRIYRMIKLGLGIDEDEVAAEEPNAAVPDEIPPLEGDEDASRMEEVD
# Full-length Hsp90β [2] = target: T1, Full-length Hsp90β; assay: SEC; analytical, Biorad Enrich SEC 650, 4 °C; 20 mM Tris pH 7.5, 100 mM NaCl, 0.5 mM EDTA, 2 mM DTT; binary mixtures 1:1 and ternary mixtures Hsp90:Cdc37:bRaf 2:1:1, incubated 15 min at 4 °C
# SH2 domain of Yes = target: T2, SH2 domain of Yes (UniProt P07947 158-255); assay: ITC; phosphopeptide (600-750 μM, syringe) titrated into SH2 domain (50-60 μM, cell); 25 °C; 20 mM Tris, 100 mM NaCl, 0.5 mM EDTA, 1 mM TCEP; single binding site model
# T2 construct: Yes, SH2 domain; Gift of Bruce Mayer (pGEX); 15N-labelled for NMR; also called Yes^SH2; SH2^Yes; source: E. coli BL21(DE3), purified (GST column, PreScission cleavage, second GST column, Superdex 75); not shown: GST, N-terminal, cleaved
# T2 sequence (P07947 158-255): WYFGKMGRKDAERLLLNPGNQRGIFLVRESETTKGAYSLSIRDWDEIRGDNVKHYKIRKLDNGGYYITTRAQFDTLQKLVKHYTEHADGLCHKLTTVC
binding result (Full-length Hsp90β [2]),Binder,further results
,"Full-length human Cdc37 (natural protein, UniProt Q16543 1-378, looked up, Cdc37 (p50), human, full length; isotope-labelled in some NMR samples; also called p50; wild-type Cdc37) MVDYSVWDHIEVSDDEDETHPNIDTASLFRWRHQARVERMEQFQKEKEELDRGCRECKRKVAECQRKLKELEVAEGGKAELERLQAEAQQLRKEERSWEQKLEEMRKKEKSMPWNVDTLSKDGFSKSMVNTKPEKTEEDSEEVREQKHKTFVEKYEKQIKHFGMLRRWDDSQKYLSDNVHLVCEETANYLVIWCIDLEVEEKCALMEQVAHQTIVMQFILELAKSLKVDPRACFRQFFTKIKTADRQYMEGFNDELEAFKERVRGRAKLRIEKAMKEYEEEERKKRLGPGGLDPVEVYESLPEELQKCFDVKDVQMLQDAISKMDPTDAKYHMQRCIDSGLWVPNSKASEAKEGEEAGPGDPLLEAVPKTGDEKDVSV",binding result (Full-length Hsp90β [1]): binds
binds,"Full-length Cdc37 carrying the phosphomimetic mutation Y298E (natural protein, human, UniProt Q16543 1-378, looked up, Cdc37 (p50), human, full length, point mutant; Point mutants made by QuikChange; Methyl-labelled for the NMR sample with Hsp90α; also called Cdc37^Y298E) MVDYSVWDHIEVSDDEDETHPNIDTASLFRWRHQARVERMEQFQKEKEELDRGCRECKRKVAECQRKLKELEVAEGGKAELERLQAEAQQLRKEERSWEQKLEEMRKKEKSMPWNVDTLSKDGFSKSMVNTKPEKTEEDSEEVREQKHKTFVEKYEKQIKHFGMLRRWDDSQKYLSDNVHLVCEETANYLVIWCIDLEVEEKCALMEQVAHQTIVMQFILELAKSLKVDPRACFRQFFTKIKTADRQYMEGFNDELEAFKERVRGRAKLRIEKAMKEYEEEERKKRLGPGGLDPVEVEESLPEELQKCFDVKDVQMLQDAISKMDPTDAKYHMQRCIDSGLWVPNSKASEAKEGEEAGPGDPLLEAVPKTGDEKDVSV",
binds,"Cdc37 single phosphomimetic mutant Y4E (natural protein, human, UniProt Q16543 1-378, looked up, Cdc37 (p50), human, point mutant of the full-length construct; also called Cdc37^Y4E) MVDESVWDHIEVSDDEDETHPNIDTASLFRWRHQARVERMEQFQKEKEELDRGCRECKRKVAECQRKLKELEVAEGGKAELERLQAEAQQLRKEERSWEQKLEEMRKKEKSMPWNVDTLSKDGFSKSMVNTKPEKTEEDSEEVREQKHKTFVEKYEKQIKHFGMLRRWDDSQKYLSDNVHLVCEETANYLVIWCIDLEVEEKCALMEQVAHQTIVMQFILELAKSLKVDPRACFRQFFTKIKTADRQYMEGFNDELEAFKERVRGRAKLRIEKAMKEYEEEERKKRLGPGGLDPVEVYESLPEELQKCFDVKDVQMLQDAISKMDPTDAKYHMQRCIDSGLWVPNSKASEAKEGEEAGPGDPLLEAVPKTGDEKDVSV",
binds,"Cdc37 double-phosphomimetic mutant Y4E/Y298E (natural protein, human, UniProt Q16543 1-378, looked up, Cdc37 (p50), human, double point mutant of the full-length construct; also called Cdc37^EE; C^EE) MVDESVWDHIEVSDDEDETHPNIDTASLFRWRHQARVERMEQFQKEKEELDRGCRECKRKVAECQRKLKELEVAEGGKAELERLQAEAQQLRKEERSWEQKLEEMRKKEKSMPWNVDTLSKDGFSKSMVNTKPEKTEEDSEEVREQKHKTFVEKYEKQIKHFGMLRRWDDSQKYLSDNVHLVCEETANYLVIWCIDLEVEEKCALMEQVAHQTIVMQFILELAKSLKVDPRACFRQFFTKIKTADRQYMEGFNDELEAFKERVRGRAKLRIEKAMKEYEEEERKKRLGPGGLDPVEVEESLPEELQKCFDVKDVQMLQDAISKMDPTDAKYHMQRCIDSGLWVPNSKASEAKEGEEAGPGDPLLEAVPKTGDEKDVSV",
,"EV[pY]ESLPEEL (Cdc37, residues 296-305; also called phosphopeptide; source: synthetic peptide (GL Biochem)) [Phosphotyrosine-modified decapeptide EVpYESLPEEL of Cdc37 (residues 296-305)]",Kd (SH2 domain of Yes): 410 nM
